Source: paper PMC2515335 (2008)

Target: T1, Importin-β3 (Homo sapiens, UniProt O00410)
T1 chain: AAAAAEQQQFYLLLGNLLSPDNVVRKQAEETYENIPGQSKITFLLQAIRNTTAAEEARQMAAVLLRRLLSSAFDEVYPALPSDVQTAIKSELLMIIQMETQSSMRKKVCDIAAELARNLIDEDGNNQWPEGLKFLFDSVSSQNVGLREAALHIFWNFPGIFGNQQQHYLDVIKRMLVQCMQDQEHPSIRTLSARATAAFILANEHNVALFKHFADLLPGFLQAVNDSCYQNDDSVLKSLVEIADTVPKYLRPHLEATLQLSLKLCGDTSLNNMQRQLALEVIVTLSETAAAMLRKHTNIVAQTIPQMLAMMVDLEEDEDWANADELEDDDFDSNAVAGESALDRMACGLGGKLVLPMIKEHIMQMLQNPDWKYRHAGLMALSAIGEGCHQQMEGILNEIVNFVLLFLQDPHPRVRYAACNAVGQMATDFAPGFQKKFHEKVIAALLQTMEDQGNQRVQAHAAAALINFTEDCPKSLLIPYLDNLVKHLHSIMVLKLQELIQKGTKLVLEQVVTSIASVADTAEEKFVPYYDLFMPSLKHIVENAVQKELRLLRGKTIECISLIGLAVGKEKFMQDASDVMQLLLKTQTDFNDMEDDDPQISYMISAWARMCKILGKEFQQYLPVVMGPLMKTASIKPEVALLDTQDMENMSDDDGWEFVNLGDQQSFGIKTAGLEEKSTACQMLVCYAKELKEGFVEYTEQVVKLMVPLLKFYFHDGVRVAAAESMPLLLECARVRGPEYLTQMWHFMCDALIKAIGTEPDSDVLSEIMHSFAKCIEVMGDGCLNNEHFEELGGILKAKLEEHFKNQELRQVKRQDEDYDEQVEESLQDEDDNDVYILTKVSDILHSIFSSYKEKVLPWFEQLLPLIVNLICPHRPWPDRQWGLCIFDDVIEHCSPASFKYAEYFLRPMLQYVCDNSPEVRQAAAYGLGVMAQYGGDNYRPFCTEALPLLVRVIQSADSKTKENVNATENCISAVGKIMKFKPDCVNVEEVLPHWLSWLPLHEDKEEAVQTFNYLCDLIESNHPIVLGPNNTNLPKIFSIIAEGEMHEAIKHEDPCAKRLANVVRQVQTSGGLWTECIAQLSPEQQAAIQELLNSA
Test: native PAGE gel-shift mobility assay/fluorimetry

B1: Vpr 1-96 (protein)
chain: MEQAPEDQGPQREPYNEWTLELLEELKSEAVRHFPRIWLHNLGQHIYETYGDTWAGVEAIIRILQQLLFIHFRIGCRHSRIGVTRQRRARNGASRS
Kd: 660 nM
